Laboratory results reported in PMC8394153, “Novel Glutamate–Putrescine Ligase Activity in Haloferax mediterranei: A New Function for glnA-2 Gene” (Biomolecules, 2021).

Target: the molecule itself
Assay: SEC; HiPrep 16/60 Sephacryl S-300 High-Resolution column; eluted in 20 mM Tris-HCl, 2 M NaCl, 10 mM MgCl2, pH 7.5, 0.5 mL/min, room temperature; standard proteins 12.5 to 678 kDa; oligomer size from 667 kDa against a 55 kDa monomer (SDS-PAGE)

B1: recombinant GlnA-2 protein (HFX_1688) from Haloferax mediterranei (enzyme, UniProt I3R584 1-446, looked up)
chain: MSDTSTVKSQCEDQNIDLIRLLYVTPSGVIQANTVDVSEVDAAVESGVTLSEVIQVYDAFACRNRNSRFDAVGEVHLCPDPETFRPLPYADRAGAMLCNIRTLDGEPWDVDSRSSLQSVERDLRAKGLSPQVAFESEFSLFSRDGDGKINRGDEAGAYRTESIRGTHDAILHIVDALKAQGIDVKKYHPEFSPGKHEIVTGHHTGLEAADEHLLLRETVKSVAEQDGYQATFLPKPFDDGTNGCHINVSLWNGENQFFDPNHGDISETARQFIAGVLDHAPAVLALTAPTVNSYSRLQPRHGAAGYICWGWLNREALIRVPAPAQGREADSTRIEFRGADNTANPYLGLIGLLAAGNDGIERELEPPEPVSVDPCDLTDAQRTAKGIKRLPQTLGEALDALETNEVLREALGPDLFDAYVEVKRNHWKLFTESAGAWQRERLRNLY
notes: GlnA-2 of Haloferax mediterranei R4 (ATCC 33500T), locus HFX_1688, annotated as glutamine synthetase; monomer 55 kDa by SDS-PAGE; also called glutamate–putrescine ligase; HFX_01688; source: heterologous expression in E. coli, purified (gel filtration); copies: 12
- stoichiometry N: 12
